In article PMC2756588:

T1: Cdc25, P04821
T1 sequence (P04821 50-136, looked up): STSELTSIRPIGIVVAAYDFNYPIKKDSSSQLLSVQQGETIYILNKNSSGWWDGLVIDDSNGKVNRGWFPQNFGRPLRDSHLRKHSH

T2: Hof1, Q05080
T2 sequence (Q05080 590-669, looked up): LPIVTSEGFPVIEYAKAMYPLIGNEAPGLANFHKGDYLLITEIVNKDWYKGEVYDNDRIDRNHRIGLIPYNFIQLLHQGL

T3: Sla1-3, P32790
T3 sequence (P32790 344-424, looked up): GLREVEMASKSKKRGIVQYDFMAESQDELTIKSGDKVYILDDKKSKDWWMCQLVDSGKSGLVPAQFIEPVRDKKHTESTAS

T4: Hse1, P38753
T4 sequence (P38753 208-285, looked up): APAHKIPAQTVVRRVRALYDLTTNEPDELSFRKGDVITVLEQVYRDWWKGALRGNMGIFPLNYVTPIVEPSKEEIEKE

T5: Lsb3, P43603
T5 sequence (P43603 385-451, looked up): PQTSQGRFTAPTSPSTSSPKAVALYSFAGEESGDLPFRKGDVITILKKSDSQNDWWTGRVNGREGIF

T6: Bud14, P27637
T6 sequence (P27637 247-328, looked up): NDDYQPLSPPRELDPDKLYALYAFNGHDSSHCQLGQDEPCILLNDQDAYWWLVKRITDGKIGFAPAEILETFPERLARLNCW

T7: Boi2, P39969
T7 sequence (P39969 32-116, looked up): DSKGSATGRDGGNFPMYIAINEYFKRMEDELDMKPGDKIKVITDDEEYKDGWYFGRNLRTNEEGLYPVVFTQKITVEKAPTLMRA

T8: Fus1, P11710
T8 sequence (P11710 432-512, looked up): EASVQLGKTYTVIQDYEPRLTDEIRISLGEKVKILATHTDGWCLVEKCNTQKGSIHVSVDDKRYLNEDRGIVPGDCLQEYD

T9: Abp1, P15891
T9 sequence (P15891 535-592, looked up): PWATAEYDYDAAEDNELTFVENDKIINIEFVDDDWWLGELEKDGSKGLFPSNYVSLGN

T10: Pin3, Q06449
T10 sequence (Q06449 53-122, looked up): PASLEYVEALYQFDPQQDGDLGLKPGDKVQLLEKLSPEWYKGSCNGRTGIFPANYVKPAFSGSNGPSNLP

T11: Bzz1-2, P38822
T11 sequence (P38822 568-633, looked up): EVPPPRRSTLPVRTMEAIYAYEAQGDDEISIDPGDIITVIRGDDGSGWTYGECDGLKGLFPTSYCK

T12: Myo5, Q04439
T12 sequence (Q04439 1072-1160, looked up): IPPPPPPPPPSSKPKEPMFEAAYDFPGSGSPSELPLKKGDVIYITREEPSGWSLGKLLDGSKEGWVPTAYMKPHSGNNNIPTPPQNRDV

T13: Pex13, P80667
T13 sequence (P80667 295-386, looked up): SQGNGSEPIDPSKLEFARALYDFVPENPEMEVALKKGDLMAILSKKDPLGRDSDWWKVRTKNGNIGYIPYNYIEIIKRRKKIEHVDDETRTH

T14: Sla1-2, P32790
T14 sequence (P32790 60-140, looked up): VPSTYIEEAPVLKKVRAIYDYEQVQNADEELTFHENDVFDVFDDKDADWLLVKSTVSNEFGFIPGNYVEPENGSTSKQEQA

T15: Lsb1, P53281
T15 sequence (P53281 45-122, looked up): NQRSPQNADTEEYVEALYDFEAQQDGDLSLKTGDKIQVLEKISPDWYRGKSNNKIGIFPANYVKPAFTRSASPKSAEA

T16: Cyk3, Q07533
T16 sequence (Q07533 1-83, looked up): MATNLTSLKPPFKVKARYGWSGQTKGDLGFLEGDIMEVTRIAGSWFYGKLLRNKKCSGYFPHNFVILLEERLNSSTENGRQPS

T17: Bzz1-1, P38822
T17 sequence (P38822 478-572, looked up): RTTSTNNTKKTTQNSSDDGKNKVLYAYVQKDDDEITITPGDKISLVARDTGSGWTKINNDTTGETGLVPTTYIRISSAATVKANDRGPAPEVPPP

T18: Boi1, P38041
T18 sequence (P38041 1-86, looked up): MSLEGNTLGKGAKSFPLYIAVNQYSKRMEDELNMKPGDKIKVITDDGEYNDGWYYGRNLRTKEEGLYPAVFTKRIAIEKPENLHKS

T19: Lsb4, P32793
T19 sequence (P32793 402-468, looked up): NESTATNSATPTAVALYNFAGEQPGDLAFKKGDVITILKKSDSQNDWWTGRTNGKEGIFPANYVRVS

T20: Nbp2, Q12163
T20 sequence (Q12163 103-180, looked up): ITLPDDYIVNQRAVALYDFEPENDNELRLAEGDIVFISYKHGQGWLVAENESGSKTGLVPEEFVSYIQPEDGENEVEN

T21: Bbc1, P47068
T21 sequence (P47068 1-78, looked up): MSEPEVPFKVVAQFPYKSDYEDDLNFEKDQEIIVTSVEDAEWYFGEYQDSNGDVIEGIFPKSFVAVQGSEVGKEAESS

B1: unnamed (peptide)
chain: RPVPPPPPMRTTTEG
B2: unnamed (peptide)
chain: ATNVPVAPPPPPASL
B3: unnamed (peptide)
chain: RLPAPPPPPRRGPAP
B4: unnamed (peptide)
chain: VPVAPPPPPASLGQS
B5: unnamed (peptide)
chain: SGVRLPAPPPPPRRG
B6: unnamed (peptide)
chain: RNNRPVPPPPPMRTT

biological target: T1, Cdc25, P04821; assay: SPOT array; settings: median of control spots 969

| SPOT intensity | Binder |
| --- | --- |
| 0 | B1 |
| 0 | B2 |
| 0 | B3 |
| 0 | B4 |
| 0 | B5 |
| 0 | B6 |

biological target: T2, Hof1, Q05080; assay: SPOT array; settings: median of control spots 4086

| SPOT intensity | Binder |
| --- | --- |
| 23 | B1 |
| 0 | B2 |
| 5 | B3 |
| 0 | B4 |
| 633 | B5 |
| 0 | B6 |

biological target: Sho1, P40073; assay: SPOT array; settings: median of control spots 1148
Sequence (P40073 287-367): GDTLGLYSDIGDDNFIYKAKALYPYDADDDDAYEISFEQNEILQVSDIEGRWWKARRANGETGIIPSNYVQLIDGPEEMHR

| SPOT intensity | Binder |
| --- | --- |
| 2 | B1 |
| 0 | B2 |
| 0 | B3 |
| 0 | B4 |
| 0 | B5 |
| 0 | B6 |

biological target: GST; assay: SPOT array; settings: median of control spots 978

| SPOT intensity | Binder |
| --- | --- |
| 0 | B1 |
| 0 | B2 |
| 0 | B3 |
| 0 | B4 |
| 0 | B5 |
| 0 | B6 |

biological target: T3, Sla1-3, P32790; assay: SPOT array; settings: median of control spots 5475

| SPOT intensity | Binder |
| --- | --- |
| 2 | B1 |
| 0 | B2 |
| 1 | B3 |
| 0 | B4 |
| 0 | B5 |
| 0 | B6 |

biological target: T4, Hse1, P38753; assay: SPOT array; settings: median of control spots 1727

| SPOT intensity | Binder |
| --- | --- |
| 9 | B1 |
| 0 | B2 |
| 1 | B3 |
| 0 | B4 |
| 0 | B5 |
| 7 | B6 |

biological target: T5, Lsb3, P43603; assay: SPOT array; settings: median of control spots 406

| SPOT intensity | Binder |
| --- | --- |
| 0 | B1 |
| 0 | B2 |
| 0 | B3 |
| 0 | B4 |
| 0 | B5 |
| 0 | B6 |

biological target: T6, Bud14, P27637; assay: SPOT array; settings: median of control spots 956

| SPOT intensity | Binder |
| --- | --- |
| 0 | B1 |
| 0 | B2 |
| 3 | B3 |
| 0 | B4 |
| 3 | B5 |
| 0 | B6 |

biological target: Rvs167, P39743; assay: SPOT array; settings: median of control spots 2707
Sequence (P39743 419-482): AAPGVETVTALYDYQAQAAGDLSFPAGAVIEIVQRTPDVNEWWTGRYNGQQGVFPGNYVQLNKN

| SPOT intensity | Binder |
| --- | --- |
| 7510 | B1 |
| 0 | B2 |
| 1500 | B3 |
| 0 | B4 |
| 3630 | B5 |
| 1870 | B6 |

biological target: T7, Boi2, P39969; assay: SPOT array; settings: median of control spots 1161

| SPOT intensity | Binder |
| --- | --- |
| 0 | B1 |
| 0 | B2 |
| 1 | B3 |
| 0 | B4 |
| 1 | B5 |
| 1 | B6 |

biological target: T8, Fus1, P11710; assay: SPOT array; settings: median of control spots 1200

| SPOT intensity | Binder |
| --- | --- |
| 1 | B1 |
| 0 | B2 |
| 0 | B3 |
| 0 | B4 |
| 0 | B5 |
| 0 | B6 |

biological target: T9, Abp1, P15891; assay: SPOT array; settings: median of control spots 935

| SPOT intensity | Binder |
| --- | --- |
| 0 | B1 |
| 0 | B2 |
| 0 | B3 |
| 0 | B4 |
| 0 | B5 |
| 0 | B6 |

biological target: T10, Pin3, Q06449; assay: SPOT array; settings: median of control spots 2171

| SPOT intensity | Binder |
| --- | --- |
| 59 | B1 |
| 0 | B2 |
| 8 | B3 |
| 0 | B4 |
| 4 | B5 |
| 31 | B6 |

biological target: T11, Bzz1-2, P38822; assay: SPOT array; settings: median of control spots 4538

| SPOT intensity | Binder |
| --- | --- |
| 664 | B1 |
| 3 | B2 |
| 9 | B3 |
| 0 | B4 |
| 20 | B5 |
| 233 | B6 |

biological target: T12, Myo5, Q04439; assay: SPOT array; settings: median of control spots 471

| SPOT intensity | Binder |
| --- | --- |
| 2 | B1 |
| 0 | B2 |
| 0 | B3 |
| 1 | B4 |
| 0 | B5 |
| 1 | B6 |

biological target: T13, Pex13, P80667; assay: SPOT array; settings: median of control spots 1341

| SPOT intensity | Binder |
| --- | --- |
| 185 | B1 |
| 0 | B2 |
| 75 | B3 |
| 0 | B4 |
| 55 | B5 |
| 201 | B6 |

biological target: T14, Sla1-2, P32790; assay: SPOT array; settings: median of control spots 712

| SPOT intensity | Binder |
| --- | --- |
| 0 | B1 |
| 0 | B2 |
| 0 | B3 |
| 0 | B4 |
| 3 | B5 |
| 1 | B6 |

biological target: Bem1-1, P29366; assay: SPOT array; settings: median of control spots 4282
Sequence (P29366 55-141): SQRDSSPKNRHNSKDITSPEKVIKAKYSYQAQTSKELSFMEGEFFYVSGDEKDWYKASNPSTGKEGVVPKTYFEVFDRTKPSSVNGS

| SPOT intensity | Binder |
| --- | --- |
| 3 | B1 |
| 4 | B2 |
| 0 | B3 |
| 4 | B4 |
| 3 | B5 |
| 5 | B6 |

biological target: T15, Lsb1, P53281; assay: SPOT array; settings: median of control spots 388

| SPOT intensity | Binder |
| --- | --- |
| 0 | B1 |
| 0 | B2 |
| 0 | B3 |
| 0 | B4 |
| 0 | B5 |
| 0 | B6 |

biological target: Bem1-2, P29366; assay: SPOT array; settings: median of control spots 4347
Sequence (P29366 139-227): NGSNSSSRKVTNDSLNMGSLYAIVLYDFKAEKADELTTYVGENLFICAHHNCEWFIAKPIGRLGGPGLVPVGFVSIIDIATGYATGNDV

| SPOT intensity | Binder |
| --- | --- |
| 6 | B1 |
| 0 | B2 |
| 2 | B3 |
| 1 | B4 |
| 0 | B5 |
| 0 | B6 |

biological target: T16, Cyk3, Q07533; assay: SPOT array; settings: median of control spots 1451

| SPOT intensity | Binder |
| --- | --- |
| 0 | B1 |
| 0 | B2 |
| 0 | B3 |
| 0 | B4 |
| 1 | B5 |
| 2 | B6 |

biological target: T17, Bzz1-1, P38822; assay: SPOT array; settings: median of control spots 4446

| SPOT intensity | Binder |
| --- | --- |
| 19 | B1 |
| 1 | B2 |
| 31 | B3 |
| 8 | B4 |
| 6 | B5 |
| 6 | B6 |

biological target: T18, Boi1, P38041; assay: SPOT array; settings: median of control spots 1162

| SPOT intensity | Binder |
| --- | --- |
| 0 | B1 |
| 0 | B2 |
| 0 | B3 |
| 0 | B4 |
| 0 | B5 |
| 0 | B6 |

biological target: T19, Lsb4, P32793; assay: SPOT array; settings: median of control spots 397

| SPOT intensity | Binder |
| --- | --- |
| 0 | B1 |
| 0 | B2 |
| 0 | B3 |
| 0 | B4 |
| 0 | B5 |
| 0 | B6 |

biological target: T20, Nbp2, Q12163; assay: SPOT array; settings: median of control spots 357

| SPOT intensity | Binder |
| --- | --- |
| 0 | B1 |
| 0 | B2 |
| 1 | B3 |
| 0 | B4 |
| 0 | B5 |
| 0 | B6 |

biological target: T21, Bbc1, P47068; assay: SPOT array; settings: median of control spots 796

| SPOT intensity | Binder |
| --- | --- |
| 0 | B1 |
| 0 | B2 |
| 0 | B3 |
| 0 | B4 |
| 0 | B5 |
| 0 | B6 |

biological target: Myo3, P36006; assay: SPOT array; settings: median of control spots 468

| SPOT intensity | Binder |
| --- | --- |
| 0 | B1 |
| 0 | B2 |
| 0 | B3 |
| 0 | B4 |
| 0 | B5 |
| 0 | B6 |
